B1: I777K, F968C (protein)
chain: MDYKDKALNDLRNVYADFDSLPLDFRQILIKDRATLLQKEDVEKKILERQEDAKKYAEYLKQSEIPERISLPNIKRHKGVSISFEETSEDMVLEPRPFIFDGLNIRCFRRETIFSLKNKILNMVKESSSFKNVSRQSVSFMYFKIFNKGKVIASTKSVNIYEDKIDERLEDLCNNFDDVLKKIIDVTYGYESLFVSETYSYVIFYAKSIYFPQPRCVNNWGNNIPNILTFDSFKLFTANKNNVSCIKQCSRFLWQKDFNTLEEMIEYKNGNICIVTPQLHINDVRDIKSFNDIRLYSESPIKTFSVIDNTITYLFYFKEHLGVIFNITKSRHDRRVTKFSPLSKFSDVKNITVCFDIESYFDPEKESNQVNIPFICCASIIYNKVIGNIVDFEGRDCVAQMIEYVVDICGELNISSVELIAHNGGGYDFHYILSSMYNPAAIKNILIRNNSFISFNFAHDGVKFSVKDSYSFLLCSLANASKAFLNEETFKKTDFPHHDLKTADDLYKVYKEWSSVNTEINHVVEKEKLLITSEHIVNFTKNDKSKTLIEWSKDYCRNDVLVLSKVWLEFKNAVEDIFNCELVDQTMTLAGLSYKLFQANMPFDVELRHPNKEDYFNMREALIGGRCISVNGIYKDVLCLDVKSLYPASMAFYDQPYGSFKRVSSRPKDELGIYYVRVTPNRNNKSNFFPIRSHNKITYNNFEESTYIAWYTNVDIDIGLSEGHNIEYIPFDSYGNIGYSWSKKGKIFEKYIKDVLYKLKIKYEKQNNKVKRNVIKKIMNSLWGKFAQKWVNFEYFIKSEDDIDFESEEAYKIWDTDFMLIKKIKESTYSSKPIQNGVFTLSWARYHMKSIWDAGAKEGAECIYSDTDSIFVHKEHFKKNAKFMLNGLKVPIIGSEVGQLELECEFDKLLCAGKKQYMGFYTYFQDGKPCIKEKKRFKGIPSNYIIPELYAHLLSGADKEAKIQFLKCRREWGSVKGYIENKTVKAT
B2: M779L, K934W (protein)
chain: B1 chain with K777I, M779L, K934W, C968F
B3: V774I, F871Y (protein)
chain: B1 chain with V774I, K777I, F871Y, C968F
B4: V774I, L900S (protein)
chain: B1 chain with V774I, K777I, L900S, C968F
B5: V774I, F968C (protein)
chain: B1 chain with V774I, K777I
B6: M779L, F968C (protein)
chain: B1 chain with K777I, M779L
B7: I777K, F968T (protein)
chain: B1 chain with C968T
B8: S370P: TP-DNAP2 variant (protein, listed as Kluyveromyces lactis)
chain: MNDELAFLNSQIDDYSDDIEFLRTEVFRINRYSKSIYSLMKNSSKEAIKETIEFNKYGQEIHSKIKEKEISLIEAIKLMEKKYKYLRSLNKTKDKSKKKKIHTKDIETLKTIYKTKADFDIRNFKNAETFTYENYSLLIPSEKELIDLIPEIEEDYSYYFYVSLTITGPTIFGGVTRKVPIIDTYGDINKDFYNKIKENITKVLDRVPFYEEKESEIICKKVLITLTVNKWESIDKWYKNVKSKSKKFKDFTLFLASDTSKNCVQQCVEYLGGKWNTNYSLEKMIPQQKIVTYIPLLMDIQYVQSMEDLISDFDEPNTDCKNIARLLKWNGHMGVITKIDKDVKINRIQRKRIIDVENKEVKEVFFDIEPFSDETKHQIPYLICWSYLGELYYRTGKNCIKEFVEEILSYNVDIILYAWYGSGYDYQHVLPYMKSKCIKDKYIIKNNMITYGELYYENAIIYLKDPYLFILTSLDKASKAFNVINKGEFPHSIIHSWEDLNKILPNWVKIQKRMIEYKDDNKLNIYYKNIEIFENDRNYNTILENAIEYCKVDVLAMEKVWIKFKKLLEKNLNITVSVKTFTLSQLSMKIMESKLPKYVKLYVPTLEEYSKIRNAIYGGRVISKNGIYEENIVYADVVSLYPSAMKLLKHSYGKPKLVDYIDFEKHGIYRVTLLNKHDQEPKNYLNFVPRRINRKLTWEWFKIHEGWYHTYDLIIAKSEGFDIYCHEGFEYPEKDYIFNDFIDTLYSMKETHTACSCEEQPCPIRMVAKIALNGGGYGKFVQKPIDKEIYIVKRDVVAGECDKLQENENGEICIGKRLVKRPLFYNLDSENYDKMIIEKEDEPIYSTQCGISILSASRYRLYKLCKQFENIDIIYSDTDSIFVKQKSVDWELFKSKCGSELGQLDSTIDDTKNAIISKMYIGGAKMYAFEYLNNKNKLITKLHCKGVPNYMLSLNQFKYLMESPDNTIAYKFEIIRRKLVNVITKDLIKDIKQT
B9: S370E: TP-DNAP2 variant (protein, listed as Kluyveromyces lactis)
chain: B8 chain with P370E
B10: S370K: TP-DNAP2 variant (protein, listed as Kluyveromyces lactis)
chain: B8 chain with P370K
B11: S370L: TP-DNAP2 variant (protein, listed as Kluyveromyces lactis)
chain: B8 chain with P370L
B12: S370R: TP-DNAP2 variant (protein, listed as Kluyveromyces lactis)
chain: B8 chain with P370R

Substitutions are numbered along the chain they refer to. In names and notes the source's numbering stands.

The subject of the first test is p1-encoded leu2 (Q180*). As to the kind of experiment: Large-scale p1 fluctuation tests of p1-encoded leu2 (Q180*), per-base substitution rate. It is filed as cell-based, S. cerevisiae. The conditions noted are these: per-base substitution rate, p1-encoded leu2 (Q180*), large-scale fluctuation test. The text has this: All three TP-DNAP1 libraries were screened through small scale p1 fluctuation tests in a metastable S. cerevisiae strain, OR-Y24. OR-Y24 contains w.t. p1 and recombinant p1 that lacks w.t. TP-DNAP1, and instead, encodes a standardized fluorescence reporter of p1 copy number (Table 1), and a disabled version of the LEU2 selection marker (leu2 (Q180*)). As described previously (Ravikumar et al., 2014), leu2 (Q180*) contains a C→T mutation at base 538 in LEU2 at a site permissive to all single point mutants that generate missense mutations. Reversion to functional LEU2 can be detected on medium lacking leucine.
Large-scale fluctuation tests of p1-encoded leu2 (Q180*) were performed to precisely determine per-base substitution rates for individually cloned or isolated TP-DNAP1 variants. Large-scale p1 fluctuation tests are performed similarly to small-scale p1 fluctuation tests, with several modifications. First, large-scale p1 fluctuation tests were typically performed with 36-48 replicates. For highly error-prone TP-DNAP1s obtained from later rounds of screening, fewer replicates (3-16) were used, which is sufficient for similar precision (Foster et al., 2006). Second, p1 copy number was determined by the flow cytometry method, described below. Third, cell titers were measured for each fluctuation test to estimate the average number of cells per culture. Cell resuspensions were diluted and plated on solid SC-UH medium, and colony counts were determined after incubation at 30° C. for 2-3 days. Alternatively, cell resuspensions were diluted and subject to an event-count measurement via flow cytometry. Fourth, inoculums of highly error-prone TP-DNAP 1 s occasionally contained pre-existing mutants, despite the 1:10,000 dilution, so mutant frequencies were estimated by plating pre-cultures on solid SC-UHLW, pH 5.8 medium. Plates were incubated for 2-3 days, in parallel with cultures grown for fluctuation tests. Pre-culture mutant titers were counted to estimate the number of replicates in the fluctuation test expected to contain pre-existing mutants (n). Revertants were counted from all replicates of the fluctuation tests, counts were sorted, and n replicates with the highest counts were omitted from calculations.
To calculate per-base substitution rates, fluctuation data were analyzed by the maximum likelihood method, implemented using newton.LD.plating in rSalvador 1.7 (Zheng, 2017). Phenotypic mutation rates were calculated by normalizing to the average number of cells per culture. Phenotypic mutation rates were divided by the measured p1 copy number and by the number of ways leu2 (Q180*) can revert to LEU2 (2.33 for the ochre codon) to yield per-base substitution rates. 95% confidence intervals were similarly scaled by these factors. All data related to large-scale p1 fluctuation tests are fully described in Table 2.
For the molecule B1, the “Mutation rate (s.p.b.)” value is on record as 6.67 × 10^−7 s.p.b.

Regarding B2, the “Mutation rate (s.p.b.)” value is listed as 2.85 × 10^−9 s.p.b. In the case of B3, the “Mutation rate (s.p.b.)” value is reported as 1.64 × 10^−7 s.p.b.

Regarding B4, the “Mutation rate (s.p.b.)” value is reported as 1.10 × 10^−7 s.p.b.

In the case of B5, the “Mutation rate (s.p.b.)” value was 1.14 × 10^−7 s.p.b.

Consider B6, for which the “Mutation rate (s.p.b.)” value was 3.13 × 10^−10 s.p.b.

Turning to B7, the “Mutation rate (s.p.b.)” value is given as 3.19 × 10^−7 s.p.b.

The subject of another test is p2-encoded leu2*. As to the kind of experiment: p2 leu2* fluctuation tests in GA-Y021 (p2 mutation rate reporter strain). The class given is cell-based, S. cerevisiae. The following applies: TP-DNAP2 variant in trans, wt TP-DNAP2 in cis, 36 replicates, (95% C.I.). From the text: For fluctuation tests used to measure p2 mutation rates, leu2* served as a marker for detecting mutational events. leu2* is a disabled version of LEU2, where Q180 is replaced with a TAA stop codon. Q180 is a permissive site where mutation to any other codon other than TAG and TGA results in functional reversion to LEU2. These mutational events can be detected by plating scores of parallel cultures on medium lacking leucine and counting the number distribution of functional LEU2 mutants.
For TP-DNAP2 library screening, each library member was subjected to small-scale leu2* fluctuation tests with six replicates. 190 library members from each yeast library transformation were arrayed and inoculated into liquid SC medium lacking uracil and histidine, and passaged three times at 1:10,000 dilutions. mKate2 fluorescence was measured at every passage on a microplate reader (TECAN Infinite® 200 PRO, settings: λex=588, λem=633) to track p2 copy number stabilization. To perform fluctuation tests, each library member was diluted 1:10,000 into liquid SC medium buffered to pH 5.8 and lacking uracil, histidine, tryptophan, and dilutions were split into six 100 μL replicates. Cultures were grown for 48 hours at 30° C. to reach saturation. Saturated cultures were washed with 200 μL 0.9% NaCl to remove residual leucine and resuspended in 35 μL of 0.9% NaCl. 10 μL of this resuspension was spot plated onto solid SC medium buffered to pH 5.8 and lacking uracil, histidine, tryptophan and leucine. Spot plates were allowed to dry and incubated at 30° C. Colonies were counted after 5 days. Colony counts were used to calculate the expected number of LEU2 functional mutants (m), using the p0 method (Foster, 2006, Methods Enzymol, 409:195-213).
To precisely measure p1 and p2 per-base substitution mutation rates, several modifications were made to the small-scale protocol. First, 36 replicates were performed for reconfirmation of candidate TP-DNAP2 mutators, and 48 replicates for genomic and mutual orthogonality experiments. Titers were also determined for each strain after spot plating by pooling the residual volume from 4 replicates and plating dilutions on YPD. The expected number of LEU2 functional mutants (m) was determined by the Ma-Sandri-Sarkar maximum likelihood estimator (as calculated by the FALCOR tool and corrected for partial plating (Foster, 2006, Methods Enzymol, 409:195-213; Sarkar et al., 1992, Genetica, 85:173-179; Hall et al., 2009, Bioinformatics, 25:1564-1565). The mean mKate2 fluorescence was determined from 50,000 event counts on Attune™ NxT Flow Cytometer and converted to p2 copy number by using a calibration curve. To determine per-base substitution rates, the corrected m was normalized to the average cell titer, the p2 copy number, and the target size for functional leu2* reversion (2.33 bp). 95% confidence intervals were similarly scaled.
To identify error-prone TP-DNAP2s, a small library of TP-DNAP2s diversified at locations hypothesized to be responsible for DNAP fidelity was screened. […] Four distinct site-saturation mutagenesis libraries were generated, each diversifying S370, Y424, L474, or F882 in TP-DNAP2 encoded on pGA55-reTP-DNAP2. Due to unsuccessful attempts to generate a strain with a full deletion of p2-encoded TP-DNAP2 and simultaneous integration of mKate, URA3, and leu2*, each library was transformed into GA-Y021 for convenient screening. However, since GA-Y021 still encodes wt TP-DNAP2 on p2-delORF1-mUL*, p2 mutation rates measured in this format are the result of in tandem replication of p2 by wt TP-DNAP2 and each TP-DNAP2 variant encoded in trans. 6-fold coverage of each library was maintained by picking 190 yeast colonies and passaging under selection for URA3 to stabilize the copy number of p2-delORF1-mUL* in the presence of the newly introduced TP-DNAP2 variants. […]
As to B8, the “Per-base substitution rate pf p2” value was 50.1 (32.4-70.4) ×10^−10.

As for B9, the “Per-base substitution rate pf p2” value is 27.9 (19.7-37.2) ×10^−10. On the same count and under the same terms, then B10, with 26.2 (18.0-35.4) ×10^−10.

Consider B11, for which the “Per-base substitution rate pf p2” value is given as 14.8 (9.32-21.1) ×10^−10. On to B12, for which the “Per-base substitution rate pf p2” value is given as 31.9 (22.4-42.5) ×10^−10.

The same test, now with this note: p2 substitution rate over no variant in trans.
B8 had a Fold increase of 8.4. The same measure, in the same setting: to B9 belongs 4.7; to B10, 4.4. Same read-out and setting: to B11 belongs 2.5; to B12, 5.3.

Source of the values: US20230242902A1, “A HIGHLY ERROR-PRONE […] R[…] FOR TARGETED CONTINUOUS EVOLUTION IN VIVO” (The Regents of the University of California, priority 2017, published 2023).
